This note sets out measurements from the supplement of paper PMC5998384.

Series [1] has as its system HeLa Kyoto. The experiment in a line: melting temperature (median over replicates), in situ; higher = more thermally stable.
Series [2] relates to HeLa Kyoto. The experiment in a line: thermal stability score vs G1/S (z-score of summed log2 fold changes over temperatures); higher = more thermally stable than in G1/S.
The test system of series [3] is HeLa Kyoto. The experiment in a line: solubility change mitosis vs G1/S (difference of NP-40 vs SDS log2 ratios) (log2 ratio difference); higher = more soluble in mitosis.
Series [4] relates to HeLa Kyoto. The series can be described thus: solubility in G1/S (NP-40 vs SDS abundance) (log2 ratio); higher = more soluble. The settings on record: cell cycle stage: G1/S.
[5] abbreviates: cell cycle stage: early G1 (4.5 h after nocodazole release).
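For melting temperature (median over replicates), in situ in this document: HeLa Kyoto cells synchronized by double thymidine or nocodazole block, proteins quantified by TMT10plex mass spectrometry, three independent biological replicates.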
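For solubility change mitosis vs G1/S (difference of NP-40 vs SDS log2 ratios) in this document: synchronized HeLa Kyoto cells (double thymidine block for G1/S, nocodazole release for mitosis), protein amounts in NP-40 versus SDS lysates quantified by mass spectrometry, three biological replicates.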
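For solubility in G1/S (NP-40 vs SDS abundance) in this document: HeLa Kyoto cells arrested at G1/S by double thymidine block, proteins quantified by TMT10plex mass spectrometry in mild NP-40 versus SDS extracts, three biological replicates.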
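For thermal stability score vs G1/S (z-score of summed log2 fold changes over temperatures) in this document: synchronized HeLa Kyoto cells, proteins quantified by TMT10plex mass spectrometry, three biological replicates, mitosis taken 0.5 h after nocodazole release, G1/S directly after double thymidine block.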

Take “MAEAEEQETGSLEESTDESEEEESEEEPKLKYERLSNGVTEILQKDAASCMTVHDKFLALGTHYGKVYLLDVQGNITQKFDVSPVKINQISLDESGEHMGVCSEDGKVQVFGLYSGEEFHETFDCPIKIIAVHPHFVRSSCKQFVTGGKKLLLFERSWMNRWKSAVLHEGEGNIRSVKWRGHLIAWANNMGVKIFDIISKQRITNVPRDDISLRPDMYPCSLCWKDNVTLIIGWGTSVKVCSVKERHASEMRDLPSRYVEIVSQFETEFYISGLAPLCDQLVVLSYVKEISEKTEREYCARPRLDIIQPLSETCEEISSDALTVRGFQENECRDYHLEYSEGESLFYIVSPRDVVVAKERDQDDHIDWLLEKKKYEEALMAAEISQKNIKRHKILDIGLAYINHLVERGDYDIAARKCQKILGKNAALWEYEVYKFKEIGQLKAISPYLPRGDPVLKPLIYEMILHEFLESDYEGFATLIREWPGDLYNNSVIVQAVRDHLKKDSQNKTLLKTLAELYTYDKNYGNALEIYLTLRHKDVFQLIHKHNLFSSIKDKIVLLMDFDSEKAVDMLLDNEDKISIKKVVEELEDRPELQHVYLHKLFKRDHHKGQRYHEKQISLYAEYDRPNLLPFLRDSTHCPLEKALEICQQRNFVEETVYLLSRMGNSRSALKMIMEELHDVDKAIEFAKEQDDGELWEDLILYSIDKPPFITGLLNNIGTHVDPILLIHRIKEGMEIPNLRDSLVKILQDYNLQILLREGCKKILVADSLSLLKKMHRTQMKGVLVDEENICESCLSPILPSDAAKPFSVVVFHCRHMFHKECLPMPSMNSAAQFCNICSAKNRGPGSAILEMKK [VPS41]”: the melting temperature came out at 50.2 °C in the series on HeLa Kyoto [1] (cell cycle stage: G1/S) and 49.8 °C in the series with HeLa Kyoto [1] (cell cycle stage: mitosis). Further, the thermal stability score in the series on HeLa Kyoto [2] (setting [5]) amounted to 0.549; with HeLa Kyoto [2] (cell cycle stage: mitosis) it was 0.342. Moreover, the “solubility change mitosis (log2)” value in the series on HeLa Kyoto [3] was -0.131. The “solubility in G1/S (log2)” value with HeLa Kyoto [4] was -0.0889.
As to “MAEAMDLGKDPNGPTHSSTLFVRDDGSSMSFYVRPSPAKRRLSTLILHGGGTVCRVQEPGAVLLAQPGEALAEASGDFISTQYILDCVERNERLELEAYRLGPASAADTGSEAKPGALAEGAAEPEPQRHAGRIAFTDADDVAILTYVKENARSPSSVTGNALWKAMEKSSLTQHSWQSLKDRYLKHLRGQEHKYLLGDAPVSPSSQKLKRKAEEDPEAADSGEPQNKRTPDLPEEEYVKEEIQENEEAVKKMLVEATREFEEVVVDESPPDFEIHITMCDDDPPTPEEDSETQPDEEEEEEEEKVSQPEVGAAIKIIRQLMEKFNLDLSTVTQAFLKNSGELEATSAFLASGQRADGYPIWSRQDDIDLQKDDEDTREALVKKFGAQNVARRIEFRKK [TERF2IP]”, the melting temperature came out at 49.8 °C with HeLa Kyoto [1] (cell cycle stage: G1/S) and 52.4 °C with HeLa Kyoto [1] (cell cycle stage: mitosis). Moreover, the values for the thermal stability score in the series with HeLa Kyoto [2] (setting [5]) and with HeLa Kyoto [2] (cell cycle stage: mitosis) were 1.96 and 1.16, respectively. The “solubility change mitosis (log2)” value with HeLa Kyoto [3] came out at 0.0568. Besides, in the series on HeLa Kyoto [4], the “solubility in G1/S (log2)” value stood at 0.503.
In the case of “MAEAVLRVARRQLSQRGGSGAPILLRQMFEPVSCTFTYLLGDRESREAVLIDPVLETAPRDAQLIKELGLRLLYAVNTHCHADHITGSGLLRSLLPGCQSVISRLSGAQADLHIEDGDSIRFGRFALETRASPGHTPGCVTFVLNDHSMAFTGDALLIRGCGRTDFQQGCAKTLYHSVHEKIFTLPGDCLIYPAHDYHGFTVSTVEEERTLNPRLTLSCEEFVKIMGNLNLPKPQQIDFAVPANMRCGVQTPTA [ETHE1]”, the figures for the melting temperature in the series on HeLa Kyoto [1] (cell cycle stage: G1/S) and with HeLa Kyoto [1] (cell cycle stage: mitosis) were 56.6 °C and 56.5 °C, respectively. Moreover, the thermal stability score in the series with HeLa Kyoto [2] (setting [5]) is -1; with HeLa Kyoto [2] (cell cycle stage: mitosis), -1.06. The “solubility change mitosis (log2)” value with HeLa Kyoto [3] is -0.0383. Besides, in the series with HeLa Kyoto [4], the “solubility in G1/S (log2)” value is 0.214.
On to “MAEDDPYLGRPEQMFHLDPSLTHTIFNPEVFQPQMALPTDGPYLQILEQPKQRGFRFRYVCEGPSHGGLPGASSEKNKKSYPQVKICNYVGPAKVIVQLVTNGKNIHLHAHSLVGKHCEDGICTVTAGPKDMVVGFANLGILHVTKKKVFETLEARMTEACIRGYNPGLLVHPDLAYLQAEGGGDRQLGDREKELIRQAALQQTKEMDLSVVRLMFTAFLPDSTGSFTRRLEPVVSDAIYDSKAPNASNLKIVRMDRTAGCVTGGEEIYLLCDKVQKDDIQIRFYEEEENGGVWEGFGDFSPTDVHRQFAIVFKTPKYKDINITKPASVFVQLRRKSDLETSEPKPFLYYPEIKDKEEVQRKRQKLMPNFSDSFGGGSGAGAGGGGMFGSGGGGGGTGSTGPGYSFPHYGFPTYGGITFHPGTTKSNAGMKHGTMDTESKKDPEGCDKSDDKNTVNLFGKVIETTEQDQEPSEATVGNGEVTLTYATGTKEESAGVQDNLFLEKAMQLAKRHANALFDYAVTGDVKMLLAVQRHLTAVQDENGDSVLHLAIIHLHSQLVRDLLEVTSGLISDDIINMRNDLYQTPLHLAVITKQEDVVEDLLRAGADLSLLDRLGNSVLHLAAKEGHDKVLSILLKHKKAALLLDHPNGDGLNAIHLAMMSNSLPCLLLLVAAGADVNAQEQKSGRTALHLAVEHDNISLAGCLLLEGDAHVDSTTYDGTTPLHIAAGRGSTRLAALLKAAGADPLVENFEPLYDLDDSWENAGEDEGVVPGTTPLDMATSWQVFDILNGKPYEPEFTSDDLLAQGDMKQLAEDVKLQLYKLLEIPDPDKNWATLAQKLGLGILNNAFRLSPAPSKTLMDNYEVSGGTVRELVEALRQMGYTEAIEVIQAASSPVKTTSQAHSLPLSPASTRQQIDELRDSDSVCDSGVETSFRKLSFTESLTSGASLLTLNKMPHDYGQEGPLEGKI [NFKB1]”, for which the melting temperature turned out to be 48 °C with HeLa Kyoto [1] (cell cycle stage: G1/S) and 48.5 °C with HeLa Kyoto [1] (cell cycle stage: mitosis). For the same sequence, the thermal stability score in the series with HeLa Kyoto [2] (setting [5]) was 0.372; in the series on HeLa Kyoto [2] (cell cycle stage: mitosis), 0.928. Besides, the “solubility change mitosis (log2)” value in the series with HeLa Kyoto [3] was -0.0714. For the same sequence, the “solubility in G1/S (log2)” value in the series on HeLa Kyoto [4] was determined as 0.137.
Consider “MAEGEDVGWWRSWLQQSYQAVKEKSSEALEFMKRDLTEFTQVVQHDTACTIAATASVVKEKLATEGSSGATEKMKKGLSDFLGVISDTFAPSPDKTIDCDVITLMGTPSGTAEPYDGTKARLYSLQSDPATYCNEPDGPPELFDAWLSQFCLEEKKGEISELLVGSPSIRALYTKMVPAAVSHSEFWHRYFYKVHQLEQEQARRDALKQRAEQSISEEPGWEEEEEELMGISPISPKEAKVPVAKISTFPEGEPGPQSPCEENLVTSVEPPAEVTPSESSESISLVTQIANPATAPEARVLPKDLSQKLLEASLEEQGLAVDVGETGPSPPIHSKPLTPAGHTGGPEPRPPARVETLREEAPTDLRVFELNSDSGKSTPSNNGKKGSSTDISEDWEKDFDLDMTEEEVQMALSKVDASGELEDVEWEDWE [BSDC1]”, for which the melting temperature in the series on HeLa Kyoto [1] (cell cycle stage: G1/S) is 53.3 °C; with HeLa Kyoto [1] (cell cycle stage: mitosis), 53.5 °C. Besides, the thermal stability score with HeLa Kyoto [2] (setting [5]) is -1.16; in the series on HeLa Kyoto [2] (cell cycle stage: mitosis), -2.92. Further, the “solubility change mitosis (log2)” value in the series on HeLa Kyoto [3] was -0.201. In addition, the “solubility in G1/S (log2)” value in the series on HeLa Kyoto [4] came to 0.378.
